Data as given in article PMC7547722, “A versatile soluble siglec scaffold for sensitive and quantitative detection of glycan ligands” (Nature Communications, 2020).
Where “and” joins values, the source holds several entries; their conditions need not be identical. Equal entries are not always repeated.

How the values were obtained:
[1] = test system: T-cells (CD3+), human splenocytes; test: Siglec-Fc binding to splenocytes, flow cytometry; type: cell-based; settings: Suppl Fig 12; three replicate columns
Protocol: (§1) For human splenocytes, the sample was homogenized in media through a 40 µm filter (Corning) under sterile conditions. Samples were centrifuged at 300 rcf for 5 min. The resulting pellet from the spleen sample and whole human blood were treated with RBC lysis buffer (7 min) and centrifuged at 300 rcf and the RBC lysis was repeated twice more until no RBC remained in the pellet. Samples were treated with human Fc-receptor blocking agent (TruStain FX, Biolegend) in flow buffer (HBSS, 0.1% BSA, 5 mM EDTA). For analysis, the following cocktail was used: hSig8 (PerCP/Cy5.5, clone 7C9, Biolegend cat. no. 347108, 1:200), hCD123 (PE/Cy7, clone 6H6, Biolegend cat. no. 306010, 1:200), hCD19 (PE, clone SJ25C1, Biolegend cat. no. 363004, 1:200), hCD3 (FITC, BD Pharmingen cat. no. 555332, 1:50), hCD14 (BV605, clone M5E2, BD Horizon cat. no. 564056, 1:200), hCD15 (BUV395, clone HI98, BD Horizon cat. no. 563872, 1:200), hCD56 (BV510, clone NCAM16.2, BD Horizon cat. no. 563041, 1:200). For human peripheral blood samples, we additionally used hHLA-DR (APC-Cy7, clone L243, Biolegend cat. no. 307618, 1:200). Pre-complexed Siglec-Fc/Strep-Tactin-AF647 (described above) was added to the antibody cocktail, added to cells, and allowed to stain at 4 °C for 45 min. The cells were then centrifuged at 300 rcf for 5 min and resuspended in flow buffer containing 1 µg/mL propidium iodide prior to analysis by flow cytometry.
(§2) Flow cytometry was performed on a BD LSRFortessa™ X-20 cell analyzer using BD FACSDiva Software Version 8.0.1 and data was processed using FlowJo LLC. Version 9.9.6 and Graphpad Prism 8. The live, single cell populations were gated out with two gates to obtain the median fluorescence intensity (MFI), which indicates binding of the Siglec-Fc-secondary complex to the cell surface. Control cells that were incubated with Strep-Tactin-AF647 (0.55 μg/mL, 0.57 pmol) was used to determine the baseline fluorescence. Number of cells (# cells) plotted indicates percentage of max (% max).

[2] = test system: NK cells (CD56+), human splenocytes; test: Siglec-Fc binding to splenocytes, flow cytometry; type: cell-based; settings: Suppl Fig 12; three replicate columns
Protocol: as §1, §2

[3] = test system: B-cells (CD19+), human splenocytes; test: Siglec-Fc binding to splenocytes, flow cytometry; type: cell-based; settings: Suppl Fig 12; three replicate columns
Protocol: as §1, §2

[4] = test system: monocytes (CD14+), human splenocytes; test: Siglec-Fc binding to splenocytes, flow cytometry; type: cell-based; settings: Suppl Fig 12; three replicate columns
Protocol: as §1, §2

monocytes (CD14+) = test: Siglec ligands on peripheral blood immune cells, flow cytometry; type: cell-based, human; settings: replicate values
Protocol: (§3) Siglec supernatant (50 μL) or purified Siglec was incubated with cells in a 96-well U-bottom plate for 30 min at 4 °C. Following the incubation, 200 μL of flow buffer (HBSS, 0.1% BSA, 5 mM EDTA) was added and the plate was spun down at 300 rcf for 5 min. Strep-Tactin-AF647 (0.55 μg/mL, 50 μL, 0.57 pmol), streptavidin (Biolegend), or anti-human IgG1 (Biolegend) was added to the cells and incubated for 30 min at 4 °C. After, 200 μL of flow buffer (HBSS, 0.1% BSA, 5 mM EDTA) was added and the plate was spun down at 300 rcf for 5 min. The cells were resuspended in 200 μL of flow buffer and processed through the flow cytometer.
(§4) Strep-Tactin-AF647 (0.55 μg/mL, 0.57 pmol), streptavidin (Biolegend), or anti-human igG1 (Biolegend) was added to Siglec supernatant (50 μL) or purified Siglec and allowed to sit at 4 °C for 15 min. After, the pre-complexed solution was added to cells in a 96-well U-bottom plate for 30 min at 4 °C. After, 200 μL of flow buffer (HBSS, 0.1% BSA, 5 mM EDTA) was added and the plate was spun down at 300 rcf for 5 min. The cells were resuspended in 200 μL of flow buffer and processed through the flow cytometer.
as §1, §2

basophils (CCR3+) = test: as above; type: cell-based, human; settings: replicate values
Protocol: as §3, §4, §1, §2

eosinophils (Siglec-8+) = test: as above; type: cell-based, human; settings: replicate values
Protocol: as §3, §4, §1, §2

T47D = test: Flow cytometry, pre-complexed Siglec-Fc binding to breast cancer cell line; type: cell-based; settings: Strep-Tactin-AF647, replicates
Protocol: as §4, §2

BT549 = test: as above; type: cell-based; settings: Strep-Tactin-AF647, replicates
Protocol: as §4, §2

ZR-75-1 = test: as above; type: cell-based; settings: Strep-Tactin-AF647, replicates
Protocol: as §4, §2

MDA-MB-231 = test: as above; type: cell-based; settings: Strep-Tactin-AF647, replicates
Protocol: as §4, §2

MDA-MB-468 = test: as above; type: cell-based; settings: Strep-Tactin-AF647, replicates
Protocol: as §4, §2

MCF7 = test: as above; type: cell-based; settings: Strep-Tactin-AF647, replicates
Protocol: as §4, §2

HS578T = test: as above; type: cell-based; settings: Strep-Tactin-AF647, replicates
Protocol: as §4, §2

cDCs (CD123dim/HLA-DR+) = test: Siglec ligands on peripheral blood immune cells, flow cytometry; type: cell-based, human; settings: cDC; replicate values
Protocol: as §1, §2

pDCs (CD123high/HLA-DR+) = test: as above; type: cell-based, human; settings: pDC; replicate values
Protocol: as §1, §2

B-cells (CD19+) = test: as above; type: cell-based, human; settings: replicate values
Protocol: as §1, §2

neutrophils (CD15+) = test: as above; type: cell-based, human; settings: replicate values
Protocol: as §1, §2

T-cells (CD3+) = test: as above; type: cell-based, human; settings: replicate values
Protocol: as §1, §2

NK cells (CD56+) = test: as above; type: cell-based, human; settings: replicate values
Protocol: as §1, §2

[5] = test system: neutrophils (CD15+), human splenocytes; test: Siglec-Fc (CD22-Fc V1/V2, with or without Fc receptor block) binding to splenocytes, flow cytometry; type: cell-based; settings: Suppl Fig 12; three replicate columns
Protocol: as §1, §2

[6] = test system: peripheral blood immune cells; test: Comparison of 2-step and pre-complexed Siglec-Fc binding, flow cytometry (Figure 3e-g); type: cell-based, human; settings: Figure 3f; 2-Step; listed as Siglec-7-Fc R124A
HuH7 cells = test: Flow cytometry, pre-complexed Siglec-Fc binding; type: cell-based; settings: Strep-Tactin-AF647, replicates
Protocol: as §4, §2

A549 cells = test: Flow cytometry, pre-complexed Siglec-Fc binding; type: cell-based; settings: Strep-Tactin-AF647, replicates
Protocol: as §4, §2

HEK293T cells = test: Flow cytometry, pre-complexed Siglec-Fc binding; type: cell-based; settings: HEK; Strep-Tactin-AF647; replicates
Protocol: as §4, §2

Jurkat cells = test: Flow cytometry, pre-complexed Siglec-Fc binding; type: cell-based; settings: Strep-Tactin-AF647, replicates
Protocol: as §4, §2

K562 cells = test: Flow cytometry, pre-complexed Siglec-Fc binding; type: cell-based; settings: Strep-Tactin-AF647, replicates
Protocol: as §4, §2

U937 cells = test: Flow cytometry, Siglec-Fc pre-complexed with Strep-Tactin, streptavidin or anti-human IgG1; type: cell-based; settings: U937; Strep-Tactin-AF647; replicates, Fig. 2
Protocol: as §4, §2

[7] = test system: U937 cells treated with neuraminidase; test: Pre-complexed Siglec-Fc staining of cells treated with Neu-S or Neu-A; type: cell-based
[8] = test system: human peripheral blood monocytes; test: CD33-Fc binding to monocytes treated with Neu-S or Neu-A; type: cell-based; settings: Figure 6c; WT (no neuraminidase)
Protocol: as §4
For human splenocytes, the sample was homogenized in media through a 40 µm filter (Corning) under sterile conditions. Samples were centrifuged at 300 rcf for 5 min. The resulting pellet from the spleen sample and whole human blood were treated with RBC lysis buffer (7 min) and centrifuged at 300 rcf and the RBC lysis was repeated twice more until no RBC remained in the pellet. […]
as §2, with “Version 9.9.6 and Graphpad Prism 8.” left out, “Number of cells (# cells) plotted indicates percentage of max (% max).” left out

B1: Sig-7 R124A: Siglec-7-Fc essential arginine mutant (protein, UniProt Q9Y286 19-353, looked up, variant R124A)
extracellular domain: QKSNRKDYSLTMQSSVTVQEGMCVHVRCSFSYPVDSQTDSDPVHGYWFRAGNDISWKAPVATNNPAWAVQEETRDRFHLLGDPQTKNCTLSIRDARMSDAGRYFFAMEKGNIKWNYKYDQLSVNVTALTHRPNILIPGTLESGCFQNLTCSVPWACEQGTPPMISWMGTSVSPLHPSTTRSSVLTLIPQPQHHGTSLTCQVTLPGAGVTTNRTIQLNVSYPPQNLTVTVFQGEGTASTALGNSSSLSVLEGQSLRLVCAVDSNPPARLSWTWRSLTLYPSQPSNPLVLELQVHLGDEGEFTCRAQNSLGSQHVSLNLSLQQEYTGKMRPVSGVLL
modifications: extracellular domain fused to human IgG1 Fc
notes: Siglec-7-Fc essential arginine mutant
Binding, T-cells [1]: 2.32 and 2.93 and 4.67 | Binding, NK [2]: 1.26 and 1.99 and 1.13 | Binding, B-cells [3]: 8.11 and 1.36 and 3.18 | Binding, Monocytes [4]: 7.43 and 2.68 and 5.18 | Siglec-Fc binding (Figure 3d) (monocytes (CD14+)): 56.5 and 99 and 6.42 | Siglec-Fc binding (Figure 3d) (basophils (CCR3+)): 41.1 and 57.8 and 2.57 | Siglec-Fc binding (Figure 3d) (eosinophils (Siglec-8+)): -1.28 and 37.2 and 6.04 | binding of pre-complexed Siglec-Fc (MFI) (T47D): 116 and 117 and 119 | binding of pre-complexed Siglec-Fc (MFI) (BT549): 114 and 117 and 118 | binding of pre-complexed Siglec-Fc (MFI) (ZR-75-1): 229 and 258 and 236 | binding of pre-complexed Siglec-Fc (MFI) (MDA-MB-231): 165 and 175 and 187 | binding of pre-complexed Siglec-Fc (MFI) (MDA-MB-468): 155 and 154 and 158 | binding of pre-complexed Siglec-Fc (MFI) (MCF7): 121 and 126 and 130 | binding of pre-complexed Siglec-Fc (MFI) (HS578T): 148 and 144 and 145 | Siglec-Fc binding (Figure 3d) (cDCs (CD123dim/HLA-DR+)): 70.6 and -20.5 and 24.4 | Siglec-Fc binding (Figure 3d) (pDCs (CD123high/HLA-DR+)): 57.8 and 10.3 and 41.1 | Siglec-Fc binding (Figure 3d) (B-cells (CD19+)): 52.4 and 51.4 and 53.1 | Siglec-Fc binding (Figure 3d) (neutrophils (CD15+)): 46.2 and 51.8 and 78.1 | Siglec-Fc binding (Figure 3d) (T-cells (CD3+)): 7.7 and 27 and 12.8 | Siglec-Fc binding (Figure 3d) (NK cells (CD56+)): 14.1 and 38.5 and 10.3 | Binding, Neutrophils [5]: 10.1 and 1.12 and 11.5 | Siglec-7-Fc Binding [6]: 9.54 and 11.2 | binding of pre-complexed Siglec-Fc (MFI) (HuH7 cells): 105 | binding of pre-complexed Siglec-Fc (MFI) (A549 cells): 129 (2×) and 134 | binding of pre-complexed Siglec-Fc (MFI) (HEK293T cells): 85 and 88.7 and 91 | binding of pre-complexed Siglec-Fc (MFI) (Jurkat cells): 90.2 and 95.5 and 99.5 | binding of pre-complexed Siglec-Fc (MFI) (K562 cells): 103 and 99.8 and 101 | binding of pre-complexed Siglec-Fc (MFI) (U937 cells): 137 and 149 and 150

B2: CD33-Fc R119A (protein, UniProt P20138 18-259, looked up, variant R119A)
extracellular domain: DPNFWLQVQESVTVQEGLCVLVPCTFFHPIPYYDKNSPVHGYWFREGAIISRDSPVATNKLDQEVQEETQGRFRLLGDPSRNNCSLSIVDARRRDNGSYFFAMERGSTKYSYKSPQLSVHVTDLTHRPKILIPGTLEPGHSKNLTCSVSWACEQGTPPIFSWLSAAPTSLGPRTTHSSVLIITPRPQDHGTNLTCQVKFAGAGVTTERTIQLNVTYVPQNPTTGIFPGDGSGKQETRAGVVH
modifications: extracellular domain fused to human IgG1 Fc
CD33-Fc Binding ([7]; Figure 6a, +Neu-A): 106 and 114 | CD33-Fc Binding ([7]; Figure 6a, +Neu-S): 92.4 and 95.2 | CD33-Fc Binding ([7]; Figure 6a, WT cells (no neuraminidase)): 77.3 and 79 | CD33-Fc Binding ([7]; Figure 6b, +Neu-A): 74 and 74.9 | CD33-Fc Binding ([7]; Figure 6b, +Neu-S): 73 and 72.1 and 68.7 | CD33-Fc Binding ([7]; Figure 6b, WT cells (no neuraminidase)): 77.3 and 79 | CD33-Fc Binding [8]: 42.3 and 56.8 and 61
